# B1: 1101: mAb (mouse IgG1) from clone 1101, mouse immunized with peptide of SEQ ID NO: 27; insoluble fibrin-specific antibody; VH SEQ ID NO: 12, VL SEQ ID NO: 16 (antibody, V domains shown)
# VH: MECNWILPFILSVISGVYSEVQLQQSGTVLARPGASVKMSCKASGFSFTSYWMHWVKQRPGQGLEWIGAIYPGNSDTRNNQKFKGKAKLTAVTSANTAYMELSSLTNEDSAVYYCTRKAHYGNYGFAYWGQGTLVTVSAA
# VL: MSGHSRNMKFPSQLLLFLLFRITGIICDIQMTQSSSYLSVSLGGRVTITCKASDHINNWLAWYQQKPGNAPRLLISGATSLETGVPSRFSGSGSGKDYTLSITSLQTEDVATYYCQQYWSTPLTFGAGTKLELKRADAAP
# B2: 99-5: mAb (mouse IgG1) from clone 99-5, mouse immunized with peptide of SEQ ID NO: 26; insoluble fibrin-specific antibody; VH SEQ ID NO: 4, VL SEQ ID NO: 8 (antibody, V domains shown)
# VH: MDWLWNLLFLMAAAQSIQAQIQLVQSGPELKKPGETVKISCKASGYTFTNYGMNWVKQAPGKGLKWMGWINTKIGEPTYAEEFKGRFAFSLETSASTAYLQINNLKNEDTATYFCARLLDYWGQGTTLTVSSAKTTPPSV
# VL: METDTLLLWVLLLWVPGSTGDIVLTQSPASLAVSLGQRATISCRASESVDSYGNSFMHWYQQKPGQPPKLLIYRASNLESGIPARFSGSGSRTDFTLTINPVEADDVATYYCQQSNEDPRTFGGGTKLEIKRADAAPTVS
# Columns and labels:
# [1] = target: peptide of the epitope site of 102-10 (Homo sapiens, UniProt P02675); test: Verification of affinity by SPR (Biacore T200, multi cycle kinetics); type: binding; settings: for Dissociation rate constant kd: immobilized epitope peptide of 102-10; for Binding rate constant ka: immobilized epitope peptide of 102-10, antibody 48.875-1500 nM; for Kd: immobilized epitope peptide of 102-10, reference for relative affinity
# Procedure: When an antigen is insoluble, although SPR is not suitable for verifying the affinity of the antigen, measurement by SPR was performed as reference for comparing relative affinity levels between antibodies.
# The affinity of an antibody to insoluble fibrin was calculated based on analysis by surface plasmon resonance (SPR) using Biacore T200 (GE Healthcare) to evaluate the intermolecular interaction of the antibody. […] The immobilization was performed using an amine coupling kit (BR-1000-50, GE Healthcare) and setting the […] to 90 RU. Subsequently, an antigen-antibody reaction was performed using an antibody diluted to […], 93.75, 187.5, 375, 750, and 1500 nM with 1× HBS-N buffer by a multi cycle kinetics method under conditions shown in Table 1. After the measurement, analysis using BIA evaluation (GE Healthcare) was performed to determine the KD value, kd value, and ka value.
# [2] = system: triple mutant mouse-derived pancreatic cancer cell line; settings: Alexa 647-labeled antibody, 300 μg per mouse, tail vein, imaging 1 h to day 7, FIG. 2
# Procedure: Accordingly, in vivo imaging was performed using the cell line. […] The pancreatic cancer cell line was cultured in 500 mL of a RPMI 1640 (FUJIFILM Wako Pure Chemical Corporation) medium supplemented with 100 mL of inactivated fetal bovine serum (FBS, Gibco) and 10 mL of 100 units/mL Penicillin, 100 μg/mL Streptomycin, and 250 ng/mL Amphotericin B (FUJIFILM Wako Pure Chemical Corporation). The culture supernatant was then removed. The cells were washed with PBS (Invitrogen), and 2 mL of Trypsin-EDTA [0.25% (w/v) trypsin-1.0 mmol/L ethylenediaminetetraacetic acid-4Na Solution with Phenol Red, FUJIFILM Wako Pure Chemical Corporation] was added thereto. The cells were detached by pipetting and placed in a 15-mL tube (Corning Incorporated), followed by centrifugation with a centrifuge (Universal centrifuge 5800, KUBOTA Corporation Co., Ltd.) at 270×g for 3 minutes at 4° C. The supernatant was removed, and the precipitate was resuspended in 10 mL of PBS, followed by centrifugation at 270×g for 3 minutes at 4° C. After repeating this procedure three times, the concentration was adjusted to 2×10^6 cells/50 μL with PBS, and the cell solution was subcutaneously injected to 5-week old BALB/c Slc nu/nu mice (Japan SLC, Inc.) at 50 μL per mouse from the left foot base. […] The control used was InVivoMAb Mouse IgG1 Isotype control (Bio X Cell). […]
Molecule,Dissociation rate constant kd [1],Binding rate constant ka [1],Kd [1],Accumulation of antibody to cancer [2]
B1,0.00325 s⁻¹,93700 M⁻¹ s⁻¹,66.8 nM,high
B2,0.000585 s⁻¹,18000 M⁻¹ s⁻¹,32.6 nM,high

# Source: patent publication US11311626B2, “Plasmin-cleavable anti-insoluble fibrin antibody-drug conjugate” (NATIONAL CANCER CENTER JAPAN, priority 2017, dated 2022)
